Consider 1 molecule from paper PMC6740199 (Molecular Biology of the Cell, 2019).

The target in the assay is T1, six-histidine-tagged Bem1 (His6-Bem1), carrying Bem1 residues from 44 to 551 (S. cerevisiae, UniProt P29366 44-551).
T1 sequence: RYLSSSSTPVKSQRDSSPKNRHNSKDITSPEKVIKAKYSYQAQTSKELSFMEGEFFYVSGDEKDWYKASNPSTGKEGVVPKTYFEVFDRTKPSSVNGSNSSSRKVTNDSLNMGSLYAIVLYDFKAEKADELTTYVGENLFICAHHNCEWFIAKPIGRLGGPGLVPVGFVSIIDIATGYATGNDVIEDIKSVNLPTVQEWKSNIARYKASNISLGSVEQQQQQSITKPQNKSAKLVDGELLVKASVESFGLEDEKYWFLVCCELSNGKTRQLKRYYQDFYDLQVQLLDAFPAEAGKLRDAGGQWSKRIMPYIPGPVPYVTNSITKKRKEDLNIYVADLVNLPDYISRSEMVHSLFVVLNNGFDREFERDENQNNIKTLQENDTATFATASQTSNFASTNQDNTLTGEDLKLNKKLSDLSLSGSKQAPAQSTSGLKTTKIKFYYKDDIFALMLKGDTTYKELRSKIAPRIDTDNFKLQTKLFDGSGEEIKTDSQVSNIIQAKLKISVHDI
The assay can be described thus: pull-down.

B1: GST (glutathione S-transferase)-Rsr1 (natural protein)
chain: MRDYKLVVLGAGGVGKSCLTVQFVQGVYLDTYDPTIEDSYRKTIEIDNKVFDLEILDTAGIAQFTAMRELYIKSGMGFLLVYSVTDRQSLEELMELREQVLRIKDSDRVPMVLIGNKADLINERVISVEEGIEVSSKWGRVPFYETSALLRSNVDEVFVDLVRQIIRNEMESVAVKDARNQSQQFSKIESPSTRLPSSAKQDTKQSNNKQSSKGLYNKSSQGQAKVKQSTPVNEKHKPSHAVPKSGSSNRTGISATSQQKKKKKNASTCTIL
On to B1, for which the binding result is recorded as “binds”.
